Values joined by “and” are separate entries in the source; they are usually repeats but may differ in a detail not shown here. Equal values may be shown once.
Target: precursor δ-latroinsectotoxin (full-length precursor δ-LIT) (Latrodectus tredecimguttatus)
Assay: cryo-EM, reference-free 2D classification of particles; full-length δ-LIT at 0.4 mg/ml on holey carbon grids; particles sorted into monomer, dimer, trimer and tetramer classes

Substance: precursor δ-latroinsectotoxin (full-length precursor δ-LIT) (natural protein)
- percent of particles that are dimers: 50%
- percent of particles that are tetramers: 2.5%
- percent of particles that are trimers: 2.5%
- stoichiometry N: 2 and 3 and 4

— paper PMC8630228
